For this test, the target named is T1, α subunit of the F1 domain of FoF1 ATP synthase from Geobacillus stearothermophilus (Bacillus PS3 sp.) (G. stearothermophilus (Bacillus PS3 sp.), UniProt P09219 1-502).
T1 construct: ATP synthase subunit alpha, Bacillus PS3 sp; (G. stearothermophilus); subunit of the ΔεCT-FoF1 complex; Three copies stand in the F1 domain (α3β3γ); The complex was purified on Ni-NTA; also called αE; αT
Put plainly: cryo-EM structure; purified ΔεCT-FoF1 in DDM, 9 µM enzyme; 26 mM ATP-Mg, 20 s at 25 °C (high [ATP], nucleotide-depleted enzyme) or 25 µM ATP with pyruvate kinase and PEP, 60 s at 25 °C (low [ATP]); flash frozen; focused refinement on the F1 domain. Particulars: both partners purified.

Experimental findings from article PMC10333338, “Mechanism of ATP hydrolysis dependent rotation of bacterial ATP synthase” (Nature Communications, 2023) are described below.

T1 sequence (P09219 whole entry, the tested form may be a part): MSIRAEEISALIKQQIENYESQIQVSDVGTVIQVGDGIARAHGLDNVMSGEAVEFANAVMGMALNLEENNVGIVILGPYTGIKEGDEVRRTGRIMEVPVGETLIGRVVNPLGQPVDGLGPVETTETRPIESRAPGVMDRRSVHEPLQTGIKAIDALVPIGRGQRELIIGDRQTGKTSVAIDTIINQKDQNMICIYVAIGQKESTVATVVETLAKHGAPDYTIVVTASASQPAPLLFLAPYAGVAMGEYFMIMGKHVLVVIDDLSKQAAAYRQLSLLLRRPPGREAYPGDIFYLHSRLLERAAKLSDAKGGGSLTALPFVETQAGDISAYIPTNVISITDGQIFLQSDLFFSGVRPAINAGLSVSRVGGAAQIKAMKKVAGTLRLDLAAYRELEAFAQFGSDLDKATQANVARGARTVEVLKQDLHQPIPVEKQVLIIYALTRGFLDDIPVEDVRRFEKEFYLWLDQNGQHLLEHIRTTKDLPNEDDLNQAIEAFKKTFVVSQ

B1: γ subunit of the F1 domain of FoF1 ATP synthase from Geobacillus stearothermophilus (Bacillus PS3 sp.) (natural protein, G. stearothermophilus (Bacillus PS3 sp.), UniProt P09222 5-286, looked up)
chain: ASLRDIKTRINATKKTSQITKAMEMVLTSKLNRAEKREIVRPYMEKIQEVVANVALAARASHPMLVSRPVKKTGYLVITSDRGLAGAYNSNVLRLVYQTIQKRHASPDEYAIIVIGRVGLSFFRKRNMPVILDITRLPDQPSFADIKEIARKTVGLFADGTFDELYMYYNHYVSAIQQEVTERKLLPLTDLAENKQRTVYEFEPSQEEILDVLLPQYAESLIYGALLDAKASEHAARMTAMKNATDNANELIRTLTLSYNRARQAAITQEITEIVAGANALQ
notes: ATP synthase gamma chain, Bacillus PS3 sp; (G. stearothermophilus); subunit of the ΔεCT-FoF1 complex; One copy in the centre of α3β3; also called γ-stalk; central γ subunit
Regarding B1, the binding result is given as “binds”.
